T1: CFA/I (adhesin CfaE) on ETEC strain H10407 (enterotoxigenic Escherichia coli strain …, UniProt P25734 1-360)
T1 sequence (looked up): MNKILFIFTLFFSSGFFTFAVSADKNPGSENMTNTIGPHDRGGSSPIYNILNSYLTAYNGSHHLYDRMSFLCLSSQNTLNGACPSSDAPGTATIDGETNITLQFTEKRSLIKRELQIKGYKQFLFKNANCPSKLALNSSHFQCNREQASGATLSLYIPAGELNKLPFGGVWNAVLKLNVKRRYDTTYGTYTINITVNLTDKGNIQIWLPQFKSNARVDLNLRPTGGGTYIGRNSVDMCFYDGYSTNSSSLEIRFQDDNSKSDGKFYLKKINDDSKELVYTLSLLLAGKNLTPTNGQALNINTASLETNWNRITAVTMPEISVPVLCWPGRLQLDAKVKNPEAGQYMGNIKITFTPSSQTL

T2: CS14
T2 construct: not the CS14 on an ETEC strain; also called recombinant CS14; N-terminal adhesin domain of CsuD with MBP tag; not shown: MBP tag from vector pMAL-C5X, with any linker or donor-strand complement
T2 chain: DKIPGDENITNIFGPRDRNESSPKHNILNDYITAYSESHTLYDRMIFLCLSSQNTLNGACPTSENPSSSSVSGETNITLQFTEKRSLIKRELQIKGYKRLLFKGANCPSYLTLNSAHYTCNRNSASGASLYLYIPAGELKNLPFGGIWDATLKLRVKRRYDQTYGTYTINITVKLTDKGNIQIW

T3: CS19
T3 construct: not the CS19 on an ETEC strain; also called recombinant CS19; N-terminal adhesin domain of CsdD with MBP tag; not shown: MBP tag from vector pMAL-C5X, with any linker or donor-strand complement
T3 chain: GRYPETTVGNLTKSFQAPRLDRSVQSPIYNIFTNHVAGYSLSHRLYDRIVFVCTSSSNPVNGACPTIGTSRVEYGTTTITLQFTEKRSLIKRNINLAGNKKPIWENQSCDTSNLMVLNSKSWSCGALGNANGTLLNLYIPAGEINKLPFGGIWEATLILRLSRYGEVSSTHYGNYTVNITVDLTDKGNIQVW

T4: MBP-CfaE-N (recombinant N-terminal adhesin domain of CfaE fused to an MBP tag) (enterotoxigenic Escherichia coli, UniProt P0AEX9 27-392 = MBP, Biotinylated for SPR; FITC or Alexa Fluor labelled for yeast flow cytometry.)
T4 construct: It was used unlabelled in ELISA, 'biotinylated' on the chip in the SPR methods, and FITC/Alexa-labelled in yeast flow cytometry; also called recombinant N-terminal truncated CfaE protein; N-terminal truncation of CfaE; not shown: MBP tag and linker of vector pMAL-C5X, and the donor strand complement
T4 sequence: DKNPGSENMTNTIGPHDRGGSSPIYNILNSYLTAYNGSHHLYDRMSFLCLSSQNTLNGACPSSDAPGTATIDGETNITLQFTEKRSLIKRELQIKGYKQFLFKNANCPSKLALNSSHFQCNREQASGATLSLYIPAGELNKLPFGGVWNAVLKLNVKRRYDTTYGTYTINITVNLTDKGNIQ

B1: VHH antibody 2R23 (monomeric nanobody) (VHH)
VHH: QVQLQESGGGLVQAGGSLRLSCAASGYIFWSYGYMGWYRQAPGKERELVATISRGGTTNYADSVKGRFTISRDNAKNTVYLQMNSLKPEDTAVYYCAAGRYAFGYFKYWGQGTQVTVSS
notes: Yeast-library clone, expressed in the E. coli periplasm
B2: VHH antibody 2R215 (monomeric nanobody) (VHH)
VHH: QVQLQESGGGLVQAGGSLRLSCAASGNIFQDAEMGWYRQAPGKEREFVATIAYGGNTNYADSVKGRFTISRDNAKNTVYLQMNSLKPEDTAVYYCAVYTGVYYDRTTGGYVAFEYWGQGTQVTVSS
notes: Yeast-library clone, expressed in the E. coli periplasm and purified by Ni-NTA; also called monomeric 2R215; monomeric VHH 2R215
B3: VHH antibody 1D7 (monomeric nanobody) (VHH)
VHH: EVQLVESGGGLVQAGGSLTLSCAASERTFSYYVMAWFRQAPGKEREFVAGISMSGDSTKYADSVKGRFTISRDNAENTGYLQMNGLKPEDTAVYYCAADRDIRGNFRSWGRGTQVTVSS
B4: VHH antibody 1H4 (monomeric nanobody) (VHH)
VHH: EVQLVESGGGLVQAGGSLRLSCAASSRTFNHYNIGWFRQAPGKEREFAAAITWNGRSTLYADSVKGRFTISRDNAKNTVYLQMNSLKPEDTAVYYCATLTTWEHKWEYNSQGQGTQVTVSS

In one experiment the target is CS14 on an ETEC strain (enterotoxigenic Escherichia coli). Description: cell-based or functional assay.
With B1, the “MRHA IC100” value came to 25 µg/mL.

As to B2, the “MRHA IC100” value was 200 µg/mL.

For the molecule B3, the “MRHA IC100” value was determined as 100 µg/mL.

Take B4: the “MRHA IC100” value turned out to be 100 µg/mL.

The target of another experiment is CS1 on an ETEC strain (enterotoxigenic Escherichia coli). Description: cell-based or functional assay.
In the case of B1, the “MRHA IC100” value is 200 µg/mL.

Regarding B2, the “MRHA IC100” value was 200 µg/mL.

As to B3, the “MRHA IC100” value was determined as 50 µg/mL.

As for B4, the “MRHA IC100” value was determined as 100 µg/mL.

A further experiment has as its target CS17 on an ETEC strain (enterotoxigenic Escherichia coli). As to the kind of experiment: cell-based or functional assay.
For B1, the “MRHA IC100” value was determined as 6.25 µg/mL.

With B2, the “MRHA IC100” value came out at 6.25 µg/mL.

As to B3, the “MRHA IC100” value amounted to 6.25 µg/mL.

On to B4, for which the “MRHA IC100” value turned out to be 6.25 µg/mL.

For another experiment, the target named is CS19 on an ETEC strain (enterotoxigenic Escherichia coli). As to the kind of experiment: cell-based or functional assay.
With B1, the “MRHA IC100” value is 200 µg/mL.

Take B2: the “MRHA IC100” value was 200 µg/mL.

Regarding B3, the “MRHA IC100” value is 100 µg/mL.

With B4, the “MRHA IC100” value is 100 µg/mL.

For another experiment, the target named is CS5 on an ETEC strain (enterotoxigenic Escherichia coli). Description: cell-based or functional assay.
B1: the “MRHA IC100” value came out at 12.5 µg/mL.

Take B2: the “MRHA IC100” value turned out to be 6.25 µg/mL.

Turning to B3, the “MRHA IC100” value amounted to 3.12 µg/mL.

Regarding B4, the “MRHA IC100” value came to 3.12 µg/mL.

Another experiment deals with CS6 on an ETEC strain (enterotoxigenic Escherichia coli). Description: cell-based or functional assay.
For B1, the “MRHA IC100” value stood at 12.5 µg/mL.

B2: the “MRHA IC100” value worked out at 25 µg/mL.

For the molecule B3, the “MRHA IC100” value is 12.5 µg/mL.

Turning to B4, the “MRHA IC100” value worked out at 25 µg/mL.

A further experiment addresses CS2 on an ETEC strain (enterotoxigenic Escherichia coli). Description: cell-based or functional assay.
As to B1, the “MRHA IC100” value was 200 µg/mL.

On to B2, for which the “MRHA IC100” value was found to be 6.25 µg/mL.

B3: the “MRHA IC100” value came out at 50 µg/mL.

Consider B4, for which the “MRHA IC100” value amounted to 100 µg/mL.

For the next experiment, the target named is CS21 on an ETEC strain (enterotoxigenic Escherichia coli). As to the kind of experiment: cell-based or functional assay.
For B1, the “MRHA IC100” value was determined as 25 µg/mL.

As for B2, the “MRHA IC100” value amounted to 25 µg/mL.

For the molecule B3, the “MRHA IC100” value was 25 µg/mL.

With B4, the “MRHA IC100” value was found to be 25 µg/mL.

The target of a further experiment is CS4 on an ETEC strain (enterotoxigenic Escherichia coli). As to the kind of experiment: cell-based or functional assay.
Take B1: the “MRHA IC100” value came to 25 µg/mL.

Take B2: the “MRHA IC100” value was determined as 100 µg/mL.

With B3, the “MRHA IC100” value turned out to be 200 µg/mL.

Regarding B4, the “MRHA IC100” value was 25 µg/mL.

A further experiment concerns the target T1, CFA/I (adhesin CfaE) on ETEC strain …. As to the kind of experiment: cell-based or functional assay.
In the case of B1, the “MRHA IC100” value is 50 µg/mL.

On to B2, for which the “MRHA IC100” value stood at 25 µg/mL.

Turning to B3, the “MRHA IC100” value was determined as 100 µg/mL.

Turning to B4, the “MRHA IC100” value came to 200 µg/mL.

The next experiment concerns the target CS3 on an ETEC strain (enterotoxigenic Escherichia coli). Description: cell-based or functional assay.
Turning to B1, the “MRHA IC100” value was found to be 100 µg/mL.

Consider B2, for which the “MRHA IC100” value came out at 100 µg/mL.

On to B3, for which the “MRHA IC100” value was 50 µg/mL.

For B4, the “MRHA IC100” value was found to be 100 µg/mL.

The target in the next experiment is T2, CS14. As to the kind of experiment: ELISA: plate coated with the recombinant antigen, purified VHH titrated (y axis printed as absorbance at 405, the text says OD450). In general terms: In an ELISA, binding on a coated surface is turned into a signal by an enzyme label.
For the molecule B1, the binding result is “binds”.

For another experiment, the target named is T3, CS19. The description is as above.
With B2, the binding result is reported as “binds”.

The target of another experiment is T4, MBP-CfaE-N (recombinant N-terminal …). Description: SPR, Biacore T200, CfaE on CM5 chip, VHH injected, 25 °C, 1:1 model. On the technique in general: Surface plasmon resonance follows binding to a sensor surface in real time, without labels.
Protocol: Surface plasmon resonance (SPR) technology was used to assess the binding properties of the VHH molecules (BIACORE® T200 instrument; GE Healthcare). Biotinylated CfaE protein was coupled to a CM5 sensor chip using standard amine coupling chemistry. Various concentrations of lead nanobodies ranging from 1 to 10 ug were injected over the chip surface at a flow rate of 30 I/min. An association step of 60 s was followed by a dissociation step of 180 s, and the final dissociation step was 600 s. Regeneration of the sensor chip surface was accomplished using 3 M MgCl₂. Experiments were performed at 25° C. Kinetic data were analyzed using BIACORE® T200 Evaluation (version 3.0) software and a 1:1 binding model.
In the case of B1, the Kd turned out to be 9.06 nM, the koff amounted to 64.6 s⁻¹ and the kon is 7.13e+09 M⁻¹ s⁻¹.

As to B3, the Kd came to 17.7 nM, the koff was determined as 0.0311 s⁻¹ and the kon stood at 1.75e+06 M⁻¹ s⁻¹.

The Kd is the constant that tells how readily two partners part at equilibrium. For orientation: koff means the first-order rate constant of dissociation. What is called kon is the second-order rate constant of association.

The values above are taken from patent US20250206809A1 (UNIVERSITY OF MASSACHUSETTS, published 2025).
